Data from the supplement of paper PMC9170038.

System: MS2 coat protein
Assay: apparent KD of MS2 coat protein; designed switch direction (-1 OFF switch, 1 ON switch): 1; higher = weaker reporter binding
How it was run: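 Designed RNA switches with common flanks were transcribed on Illumina chips by stalled E. coli RNA polymerase and titrated with SNAP-549-labelled MS2 coat protein, from 0.7 or 1.5 nM doubling to 3 µM, in Tris-HCl pH 7.5 buffer with KCl, MgCl2, BSA, DTT, tRNA and Tween-20. Steps lasted 0.8–1.5 h (lowest) to 10–20 min (highest). Titrations ran without input, with 200 uM small-molecule ligand, or with an oligonucleotide input. Normalised cluster fluorescence was curve-fitted, and apparent KD is the per-design median over clusters.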

[1] = input ligand: microRNA oligo, concentration not stated
[2] = Eterna round: R95, input ligand: FMN 200 uM
[3] = Eterna round: R95, input ligand: microRNA oligo, concentration not stated
[4] = Eterna round: R95, input ligand: none

Row | Sequence | apparent KD of MS2 coat protein (input ligand: FMN 200 uM) [nM] | apparent KD of MS2 coat protein [1] [nM] | apparent KD of MS2 coat protein (input ligand: none) [nM] | apparent KD of MS2 coat protein [2] [nM] | apparent KD of MS2 coat protein [3] [nM] | apparent KD of MS2 coat protein [4] [nM]
1 | AGACACAUGAGGAUCACCCAUGUCAUGAGCUUAGCUCGGGCACAGGAUAUCCGGUCCUAGAGACCGGAGAAGGGUGGCCGAAAA [Zara MOD] (Eterna round: R96, puzzle: Same State NG 3) | 396 | 323 | 670 |  |  | 
2 | AAAAUGGUAUGUUACAUGAGGAUCACCCAUGUACGGUCAUCUGAGGAUAUGGUGAUGUAGAAGAAUCAGAAGGCAGACAUUUAA [AK SSNG3-V2-26] (Eterna round: R96, puzzle: Same State NG 3) | 27.9 | 19.8 | 32.3 |  |  | 
3 | GGUAUGGACACAGGAUAUGCUUACGAAACGUAAGCAGAAGGGUGAACAUGAGGAUCACCCAUGUACGUGCCAGGGCGUGAGCCC [JL SSNG1 1.77] (Eterna round: R96, puzzle: Same State NG 1) | 1420 | 29.8 | 920 |  |  | 
4 | CAGCACUAUCGAGAGGAUAUGCGGUGAUGGACAUGAGGAUCACCCAUGUUAGCGGUAGCAUCACGGCAGAAGGCUCUGCUGCUGC [Soteed Omei mod 39] (puzzle: Same State 2) |  |  |  | 20.4 | 28.8 | 37.4
5 | AGCCGAGACUGAGGAUAUUUGUAUCUACAUGAGGAUCACCCAUGUAGCAACACGUGGUAGUGAUCGAAGAAGGCAGCUCGGCGC [MOD2 of Omei's SS(NG)2 Cv2] (Eterna round: R96, puzzle: Same State NG 2) | 54 | 282 | 291 |  |  | 
6 | GGAAUAUUUACAGGAUAUCAUUUGUAAAUUCGAUGAGAAGGGUAGAUGUCUUACACGACGUGUUACAUGAGGAUCACCCAUGUU [SameState NG1 #7] (Eterna round: R96, puzzle: Same State NG 1) | 146 | 142 | 146 |  |  | 
7 | GGUAUCUCCAGUGAGGAUAUGCGGCGUAGAACAUGAGGAUCACCCAUGUCCUUCGAAUGGGUUACGCAGAAGGCACUACGGUACC [Robot Arm] (puzzle: Same State 2) |  |  |  |  | 30.1 | 
8 | CCGUUCAAUAAACAUGAGGAUCACCCAUGUGAUAAUAAGGGUGAGGAUAUGCAUCUGAAACAGGUGCAGAAGGCAUAAGAGCGG [JL SSNG3 3.91] (Eterna round: R96, puzzle: Same State NG 3) | 327 | 169 | 316 |  |  | 
9 | UGGUACAUGGGAGGAUAUGGGUUGAUAACAUGAGGAUCACCCAUGUUAAAUAUGCCGAGAGGCAACUAGAAGGCCCAUGUACCU [JL SSNG1 3.00] (Eterna round: R96, puzzle: Same State NG 2) | 28.5 | 380 | 644 |  |  | 
10 | GAGUGGCGGUUAGGAUAUACAGUGAUAAUGAUAGUAGAAGGAACUGACAUGAGGAUCACCCAUGUAGGACUAAUCCAGAGAGAG [Parity 31 - Jieux - Same State NG 1] (Eterna round: R96, puzzle: Same State NG 1) | 43.6 | 21.7 | 33.7 |  |  | 
11 | AGUCCAGCCUGAGCUGGACAAAAGCAUGUACAUGAGGAUCACCCAUGUCAUGUACAAGCUUUUUGCUCGUCUUAAAU [Mat - hsa-mir-208a - Mod of JL - D22] (puzzle: Sensor for hsa-mir-208a) |  |  |  | 585 | 16.4 | 584
12 | UCAUGGUUUUUGCUCGUUUUAUGUGUUGAACAUGAGGAUCACCCAUGUAUUGUACGAUCCAGUUAGAUGGUGGUUUG [JR_SHM208A_Sub043] (puzzle: Sensor for hsa-mir-208a) |  |  |  | 235 | 85.8 | 469
13 | ACAAGCUUUUCUGCAUCGAAAGGUUGAUAACAUGAGGAUCACCCAUGUAAAUAUGAAAACGAUGCUCCUCGUCUUAU [JR_SHM208A_Sub095] (puzzle: Sensor for hsa-mir-208a) |  |  |  | 37.3 | 15.1 | 44.7
14 | CUACGAGCGCCACAGGAUAUACUGAGACUCACAUGAGGAUCACCCAUGUCCAAUUCUCCCAAAUAGUAGAAGGGUGACGCGCUCG [Maenve] (puzzle: Same State 2) |  |  |  | 37.1 | 480 | 950
15 | GUGGCGGGUUGAGGAUAUUGGUUGCCGCUGUUUUACAUGAGGAUCACCCAUGUGGGUUGCGGUUUCGAGAAGGGCGGUUGCUGG [salish99_SSNG2_r04_056] (Eterna round: R96, puzzle: Same State NG 2) | 18.2 | 14.6 | 24 |  |  | 
16 | UGCCUGAGUCGAGGAUAUUAUGGAUCAAUUAAUACAUGAGGAUCACCCAUGUAAUUAAUUUAACAUGAGAAGGCGACUCAGGCA [SSNG2/10-A2] (Eterna round: R96, puzzle: Same State NG 2) | 7.88 | 4.69 | 8.81 |  |  | 
17 | UGGUACAUGGGAGGAUAUCAUGUAGAGACAUGAGGAUCACCCAUGUAGAUGGCCGGUAACCGGGAUGAGAAGGCCCAUGUACCU [JL SSNG1 3.65] (Eterna round: R96, puzzle: Same State NG 2) | 161 | 56.3 | 151 |  |  | 
18 | CGUCCGGCCUGUGCUGGCCGGUAGCUUGUACAUGAGGAUCACCCAUGUUCAUGUGCAGGCUUUUUGCUCGUCUUGUG [salish99_mir208a_014] (puzzle: Sensor for hsa-mir-208a) |  |  |  | 27.9 | 29.6 | 31.5
19 | ACAGAGGGAAGACAGGAUAUUCGCGAUGGCACAUGAGGAUCACCCAUGUUUUGAGCACAUAAACAGAAGAAGGGUUAAAACUCAG [Veceanve] (puzzle: Same State 2) |  |  |  | 21.4 | 132 | 215
20 | UCUUGGUUUUUGCUCGUUUUUUGUGUUGAACAUGAGGAUCACCCAUGUAUUGUACGGUCCGGUUUAGUGAUGAUCCA [JMF 76] (puzzle: Sensor for hsa-mir-208a) |  |  |  | 188 | 196 | 287
21 | ACCCGCAGCCGUCAGGAUAUGUUCGCGUCAACAUGAGGAUCACCCAUGUGUGACAAGAAGUACACGCAGAAGGGAUCAAUGCGGG [Bienri] (Eterna round: R96, puzzle: Same State 2) | 13.4 | 11.7 | 17.8 |  |  | 
22 | GCGAAAUGAUGUGACAUGAGGAUCACCCAUGUAACCUCAUGUAAGGAUAUCGGAAAAAAAAAAACCGAGAAGGUAUGGUCACGC [AK SSNG3-V2-27.1] (Eterna round: R96, puzzle: Same State NG 3) | 124 | 86.4 | 216 |  |  | 
23 | AGCUAAAACGAAGGAUAUACAAACAUGAGGAUCACCCAUGUAUACAUGAUUUAUUGUGAUCACAUGUAGAAGGUCGUACUAACA [SameState NG2 #19] (Eterna round: R96, puzzle: Same State NG 2) |  | 633 |  |  |  | 
